# Values quoted from earlier work as cited in PMC3176300.
# Tests used:
# [1] = target: α-Galactosidase A (Homo sapiens) (UniProt P06280); assay: SPR
# Megalin = Megalin (UniProt P98164)
# Sortilin (Homo sapiens) = Sortilin (Homo sapiens) (UniProt Q99523)
# Chain of Megalin (P98164 26-4655): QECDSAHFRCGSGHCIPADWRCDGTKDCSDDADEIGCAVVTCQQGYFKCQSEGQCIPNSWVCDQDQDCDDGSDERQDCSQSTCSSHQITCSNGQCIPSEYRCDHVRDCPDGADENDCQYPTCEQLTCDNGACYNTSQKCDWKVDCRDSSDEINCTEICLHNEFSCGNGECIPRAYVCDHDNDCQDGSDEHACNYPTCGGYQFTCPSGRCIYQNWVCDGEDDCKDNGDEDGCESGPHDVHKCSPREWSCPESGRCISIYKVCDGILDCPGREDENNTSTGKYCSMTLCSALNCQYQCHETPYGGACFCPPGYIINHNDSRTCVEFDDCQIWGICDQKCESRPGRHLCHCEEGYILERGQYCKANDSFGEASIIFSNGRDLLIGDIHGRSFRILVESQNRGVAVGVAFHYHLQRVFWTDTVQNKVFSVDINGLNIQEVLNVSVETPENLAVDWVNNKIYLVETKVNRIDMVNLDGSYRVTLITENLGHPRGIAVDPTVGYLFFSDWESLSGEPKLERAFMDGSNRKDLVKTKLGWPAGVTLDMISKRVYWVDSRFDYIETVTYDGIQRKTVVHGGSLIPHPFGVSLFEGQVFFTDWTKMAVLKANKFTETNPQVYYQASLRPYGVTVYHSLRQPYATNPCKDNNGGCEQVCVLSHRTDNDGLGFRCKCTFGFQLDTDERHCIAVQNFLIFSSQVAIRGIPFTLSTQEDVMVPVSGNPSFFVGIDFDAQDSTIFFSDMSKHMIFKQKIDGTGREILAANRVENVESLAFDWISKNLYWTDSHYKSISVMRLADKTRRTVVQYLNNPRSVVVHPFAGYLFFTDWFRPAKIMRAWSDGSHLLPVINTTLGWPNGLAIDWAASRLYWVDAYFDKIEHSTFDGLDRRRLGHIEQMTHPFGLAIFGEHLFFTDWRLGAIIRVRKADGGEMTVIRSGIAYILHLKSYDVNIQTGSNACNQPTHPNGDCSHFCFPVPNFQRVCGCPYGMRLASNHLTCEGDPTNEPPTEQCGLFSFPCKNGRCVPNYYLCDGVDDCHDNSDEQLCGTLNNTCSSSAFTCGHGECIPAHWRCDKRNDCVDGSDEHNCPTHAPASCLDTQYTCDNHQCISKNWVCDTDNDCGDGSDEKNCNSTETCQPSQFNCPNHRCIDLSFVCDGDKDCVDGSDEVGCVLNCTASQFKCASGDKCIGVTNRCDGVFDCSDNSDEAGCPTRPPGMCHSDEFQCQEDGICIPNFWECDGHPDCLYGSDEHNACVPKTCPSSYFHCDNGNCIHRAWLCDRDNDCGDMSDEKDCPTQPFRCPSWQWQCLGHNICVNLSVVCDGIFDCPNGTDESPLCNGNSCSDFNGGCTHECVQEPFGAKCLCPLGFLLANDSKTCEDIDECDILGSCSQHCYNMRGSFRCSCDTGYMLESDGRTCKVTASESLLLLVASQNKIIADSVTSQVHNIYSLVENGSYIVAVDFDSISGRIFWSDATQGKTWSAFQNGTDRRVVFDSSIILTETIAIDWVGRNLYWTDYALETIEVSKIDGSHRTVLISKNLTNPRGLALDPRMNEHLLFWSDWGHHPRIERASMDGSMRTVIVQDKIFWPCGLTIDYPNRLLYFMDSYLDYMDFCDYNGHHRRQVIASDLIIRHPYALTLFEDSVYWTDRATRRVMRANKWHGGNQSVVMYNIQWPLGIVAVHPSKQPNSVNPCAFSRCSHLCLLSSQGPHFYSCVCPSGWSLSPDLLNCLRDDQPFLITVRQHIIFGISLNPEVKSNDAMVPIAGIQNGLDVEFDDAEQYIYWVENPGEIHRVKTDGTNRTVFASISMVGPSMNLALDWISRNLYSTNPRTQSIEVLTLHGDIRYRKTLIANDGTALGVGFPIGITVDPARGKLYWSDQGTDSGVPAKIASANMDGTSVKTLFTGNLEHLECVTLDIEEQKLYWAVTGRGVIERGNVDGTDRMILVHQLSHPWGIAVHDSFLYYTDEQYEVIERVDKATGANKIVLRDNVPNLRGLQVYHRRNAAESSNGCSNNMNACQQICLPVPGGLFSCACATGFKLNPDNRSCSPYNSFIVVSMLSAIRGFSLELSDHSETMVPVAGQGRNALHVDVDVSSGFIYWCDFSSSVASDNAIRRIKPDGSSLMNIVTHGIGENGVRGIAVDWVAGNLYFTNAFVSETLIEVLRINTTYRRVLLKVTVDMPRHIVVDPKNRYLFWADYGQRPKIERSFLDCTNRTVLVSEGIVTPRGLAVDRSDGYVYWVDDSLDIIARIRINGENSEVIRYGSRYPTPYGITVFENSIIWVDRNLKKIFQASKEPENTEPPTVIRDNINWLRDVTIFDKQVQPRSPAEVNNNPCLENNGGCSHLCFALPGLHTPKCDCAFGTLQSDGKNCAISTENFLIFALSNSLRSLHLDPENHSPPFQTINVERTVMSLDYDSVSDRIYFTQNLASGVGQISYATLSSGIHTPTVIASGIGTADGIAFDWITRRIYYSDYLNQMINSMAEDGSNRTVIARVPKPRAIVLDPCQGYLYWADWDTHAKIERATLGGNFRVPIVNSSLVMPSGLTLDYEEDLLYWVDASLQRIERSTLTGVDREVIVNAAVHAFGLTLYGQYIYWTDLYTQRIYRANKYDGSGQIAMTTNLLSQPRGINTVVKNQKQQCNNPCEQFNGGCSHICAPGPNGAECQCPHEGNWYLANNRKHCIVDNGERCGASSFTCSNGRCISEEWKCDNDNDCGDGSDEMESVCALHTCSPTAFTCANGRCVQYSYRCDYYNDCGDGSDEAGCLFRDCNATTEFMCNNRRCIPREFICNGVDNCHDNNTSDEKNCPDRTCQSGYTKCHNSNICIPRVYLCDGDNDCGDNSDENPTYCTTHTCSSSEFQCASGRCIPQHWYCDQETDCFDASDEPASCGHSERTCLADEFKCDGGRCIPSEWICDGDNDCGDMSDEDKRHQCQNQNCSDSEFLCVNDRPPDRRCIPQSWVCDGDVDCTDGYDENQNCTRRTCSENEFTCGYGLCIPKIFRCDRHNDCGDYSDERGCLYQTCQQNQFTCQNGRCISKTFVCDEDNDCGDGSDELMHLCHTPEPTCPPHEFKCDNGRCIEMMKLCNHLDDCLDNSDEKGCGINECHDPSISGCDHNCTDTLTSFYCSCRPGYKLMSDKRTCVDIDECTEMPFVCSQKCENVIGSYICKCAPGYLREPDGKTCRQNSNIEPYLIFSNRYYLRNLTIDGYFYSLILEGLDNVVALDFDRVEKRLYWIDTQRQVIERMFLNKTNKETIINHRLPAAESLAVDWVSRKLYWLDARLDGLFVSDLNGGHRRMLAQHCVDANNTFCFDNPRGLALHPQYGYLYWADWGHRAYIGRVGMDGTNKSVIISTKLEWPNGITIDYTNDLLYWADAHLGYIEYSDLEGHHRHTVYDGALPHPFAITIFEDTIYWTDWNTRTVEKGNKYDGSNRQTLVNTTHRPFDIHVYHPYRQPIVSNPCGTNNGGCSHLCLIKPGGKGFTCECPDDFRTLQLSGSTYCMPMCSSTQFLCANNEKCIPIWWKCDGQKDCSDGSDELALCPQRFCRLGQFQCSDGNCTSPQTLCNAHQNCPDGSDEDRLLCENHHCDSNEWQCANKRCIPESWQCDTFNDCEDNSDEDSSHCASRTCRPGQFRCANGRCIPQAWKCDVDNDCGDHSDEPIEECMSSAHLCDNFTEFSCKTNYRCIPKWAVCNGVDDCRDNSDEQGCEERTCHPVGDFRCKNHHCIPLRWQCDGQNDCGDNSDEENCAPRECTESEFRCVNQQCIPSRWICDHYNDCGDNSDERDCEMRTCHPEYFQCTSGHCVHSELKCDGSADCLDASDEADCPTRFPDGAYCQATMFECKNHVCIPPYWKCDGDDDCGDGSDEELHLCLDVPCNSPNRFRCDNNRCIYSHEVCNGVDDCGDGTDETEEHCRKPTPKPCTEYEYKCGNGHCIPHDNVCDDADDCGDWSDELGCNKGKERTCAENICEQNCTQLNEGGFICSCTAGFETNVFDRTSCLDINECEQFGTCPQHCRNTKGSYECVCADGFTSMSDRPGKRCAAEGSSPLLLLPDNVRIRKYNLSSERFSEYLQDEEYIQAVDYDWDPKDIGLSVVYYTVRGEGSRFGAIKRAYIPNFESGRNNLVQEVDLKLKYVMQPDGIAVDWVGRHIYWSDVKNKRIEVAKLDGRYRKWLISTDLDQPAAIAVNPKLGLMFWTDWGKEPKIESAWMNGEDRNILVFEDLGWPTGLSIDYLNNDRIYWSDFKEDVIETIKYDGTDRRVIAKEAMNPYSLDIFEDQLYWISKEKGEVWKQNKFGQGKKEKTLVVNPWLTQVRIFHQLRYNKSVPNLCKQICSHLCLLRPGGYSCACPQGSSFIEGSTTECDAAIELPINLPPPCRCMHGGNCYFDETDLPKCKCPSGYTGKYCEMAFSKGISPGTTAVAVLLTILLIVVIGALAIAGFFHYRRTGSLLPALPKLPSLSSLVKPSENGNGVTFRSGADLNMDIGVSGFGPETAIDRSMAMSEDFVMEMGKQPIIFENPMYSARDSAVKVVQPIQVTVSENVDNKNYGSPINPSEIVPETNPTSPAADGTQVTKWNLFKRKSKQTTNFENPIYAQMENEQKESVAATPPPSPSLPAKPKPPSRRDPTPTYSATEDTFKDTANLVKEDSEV
# Chain of UniProt P06280 (P06280 32-429): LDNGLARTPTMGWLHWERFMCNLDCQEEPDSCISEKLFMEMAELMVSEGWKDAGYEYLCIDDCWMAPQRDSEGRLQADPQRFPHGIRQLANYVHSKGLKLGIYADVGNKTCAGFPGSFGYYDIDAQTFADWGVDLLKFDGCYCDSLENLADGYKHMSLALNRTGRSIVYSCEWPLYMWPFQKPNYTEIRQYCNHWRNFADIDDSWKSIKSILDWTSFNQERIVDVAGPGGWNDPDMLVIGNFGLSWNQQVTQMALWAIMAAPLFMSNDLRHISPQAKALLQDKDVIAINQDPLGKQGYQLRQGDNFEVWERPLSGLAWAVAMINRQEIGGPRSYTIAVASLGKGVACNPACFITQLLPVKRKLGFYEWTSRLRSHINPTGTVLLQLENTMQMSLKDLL
Substance,Kd [1],Kd (Megalin),Kd (Sortilin (Homo sapiens))
Megalin (from UniProt P98164),600 nM,,
RAP (from UniProt P30533),,8 nM,78 nM
